The record followed here is patent US20050260210A1 (FACET BIOTECH, published 2005).

The test addresses T1, mouse α5β1 integrin (mouse, UniProt P11688 45-1053; P09055 21-798).
T1 construct: Named as present on mouse xenograft tumor vasculature
Nature of the test: not described.

T1 sequence (P11688 45-1053, chain 1 of 2): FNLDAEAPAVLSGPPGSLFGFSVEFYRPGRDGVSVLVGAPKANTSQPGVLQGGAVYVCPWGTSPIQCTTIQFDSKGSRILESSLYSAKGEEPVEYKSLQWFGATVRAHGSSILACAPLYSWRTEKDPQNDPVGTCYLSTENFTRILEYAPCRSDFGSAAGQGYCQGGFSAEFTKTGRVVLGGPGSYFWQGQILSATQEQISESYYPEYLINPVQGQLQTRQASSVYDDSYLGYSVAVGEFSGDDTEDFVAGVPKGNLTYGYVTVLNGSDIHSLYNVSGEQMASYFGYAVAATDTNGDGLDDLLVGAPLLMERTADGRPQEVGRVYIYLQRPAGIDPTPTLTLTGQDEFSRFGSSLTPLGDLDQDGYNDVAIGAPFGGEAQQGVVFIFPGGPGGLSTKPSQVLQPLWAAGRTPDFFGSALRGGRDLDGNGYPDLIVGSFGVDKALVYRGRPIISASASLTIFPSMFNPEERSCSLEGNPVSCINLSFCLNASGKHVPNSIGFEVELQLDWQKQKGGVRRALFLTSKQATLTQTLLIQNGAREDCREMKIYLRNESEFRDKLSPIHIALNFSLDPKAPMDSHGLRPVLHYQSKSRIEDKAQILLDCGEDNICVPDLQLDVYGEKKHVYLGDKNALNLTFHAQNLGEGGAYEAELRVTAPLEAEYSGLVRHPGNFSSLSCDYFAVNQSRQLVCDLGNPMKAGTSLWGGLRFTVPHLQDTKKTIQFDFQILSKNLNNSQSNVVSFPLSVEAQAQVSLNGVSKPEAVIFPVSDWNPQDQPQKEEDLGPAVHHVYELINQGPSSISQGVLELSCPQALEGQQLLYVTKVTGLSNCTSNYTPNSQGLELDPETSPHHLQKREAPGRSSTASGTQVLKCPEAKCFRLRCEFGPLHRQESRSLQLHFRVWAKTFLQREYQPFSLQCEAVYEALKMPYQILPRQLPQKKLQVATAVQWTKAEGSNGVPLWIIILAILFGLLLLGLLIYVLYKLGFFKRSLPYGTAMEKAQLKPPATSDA
T1 sequence (P09055 21-798, chain 2 of 2): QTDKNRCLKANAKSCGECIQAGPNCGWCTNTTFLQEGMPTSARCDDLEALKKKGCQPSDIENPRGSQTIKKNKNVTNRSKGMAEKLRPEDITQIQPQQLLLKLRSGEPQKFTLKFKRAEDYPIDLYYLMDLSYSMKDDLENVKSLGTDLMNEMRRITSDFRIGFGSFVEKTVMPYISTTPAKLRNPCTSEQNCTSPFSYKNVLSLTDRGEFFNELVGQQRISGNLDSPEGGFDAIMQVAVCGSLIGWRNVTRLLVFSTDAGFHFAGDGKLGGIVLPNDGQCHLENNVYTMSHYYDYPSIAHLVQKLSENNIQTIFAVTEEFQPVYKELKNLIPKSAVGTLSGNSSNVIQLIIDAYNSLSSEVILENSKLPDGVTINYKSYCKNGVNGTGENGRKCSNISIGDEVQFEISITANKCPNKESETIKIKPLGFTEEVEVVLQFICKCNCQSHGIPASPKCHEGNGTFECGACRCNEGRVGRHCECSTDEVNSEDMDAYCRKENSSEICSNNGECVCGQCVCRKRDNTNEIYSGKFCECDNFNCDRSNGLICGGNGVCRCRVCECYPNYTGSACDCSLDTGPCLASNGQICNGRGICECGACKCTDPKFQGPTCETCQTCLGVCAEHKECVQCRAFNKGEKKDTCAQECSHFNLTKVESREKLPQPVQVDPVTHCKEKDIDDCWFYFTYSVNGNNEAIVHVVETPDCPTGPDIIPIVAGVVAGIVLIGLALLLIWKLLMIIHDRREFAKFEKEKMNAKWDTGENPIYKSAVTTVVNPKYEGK

B1: IIA1, anti-α5β1 mouse antibody (antibody, mouse IgG1, V domains shown)
VH: QVQLKESGPGLVAPSQSLSITCTISGFSLTDYGVHWVRQPPGKGLEWLVVIWSDGSSTYNSALKSRMTIRKDNSKSQVFLIMNSLQTDDSAMYYCARHGTYYGMTTTGDALDYWGQGTSVTVSS
VL: QIVLTQSPAIMSASLGERVTMTCTASSSVSSNYLHWYQQKPGSAPNLWIYSTSNLASGVPARFSGSGSGTSYSLTISSMEAEDAATYYCHQYLRSPPTFGGGTKLEIK
notes: also called mouse anti-α5β1 antibody
For the molecule B1, the binding result is “no binding”.

B2: M200, chimeric anti-α5β1 antibody (antibody, IgG4, V domains shown)
VH: B1 VH
VL: B1 VL
notes: also called volociximab
Consider B2, for which the binding result is “no binding”.
